Assay results: the Immune Epitope Database (IEDB)
pIC50, pKd: −log10 of the molar value.

How the values were obtained:
HLA-A*11:01 [1] = assay: IEDB peptide-MHC binding, purified MHC/direct/fluorescence; filed as Kd, often an IC50 or EC50 that approximates it; ≥ and ≤ were set here for values at or beyond the usual limits of such assays
HLA-B*35:01 = assay: as above
HLA-B*58:01 = assay: as above
HLA-B*07:02 [2] = assay: as above
HLA-A*03:01 = assay: as above
HLA-B*44:02 = assay: as above; settings: source organism: Escherichia coli O157:H7
HLA-B*15:01 [3] = assay: as above
HLA-A*02:01 [4] = assay: as above
HLA-A*26:01 = assay: as above
HLA-A*01:01 = assay: as above
HLA-B*08:01 [5] = assay: as above
HLA-B*40:01 = assay: as above
HLA-B*27:05 = assay: as above
HLA-A*69:01 = assay: as above
HLA-A*31:01 [6] = assay: as above
HLA-A*24:03 = assay: as above
HLA-A*11:01 [7] = assay: IEDB peptide-MHC binding, purified MHC/competitive/fluorescence; ≥ and ≤ were set here for values at or beyond the usual limits of such assays; settings: source organism: Zaire ebolavirus
HLA-B*08:01 [8] = assay: as above
HLA-A*11:01 [9] = assay: IEDB peptide-MHC binding, purified MHC/competitive/fluorescence; filed as Kd, often an IC50 or EC50 that approximates it; ≥ and ≤ were set here for values at or beyond the usual limits of such assays; settings: source organism: Vibrio vulnificus YJ016
HLA-B*15:17 [10] = assay: as above; settings: source organism: Vibrio vulnificus YJ016
HLA-A*26:02 [11] = assay: IEDB peptide-MHC binding, purified MHC/direct/fluorescence; filed as Kd, often an IC50 or EC50 that approximates it; ≥ and ≤ were set here for values at or beyond the usual limits of such assays; settings: source organism: Vibrio vulnificus CMCP6
HLA-A*68:02 = assay: as above
HLA-B*39:01 = assay: as above
HLA-A*24:02 [12] = assay: as above
HLA-A*23:01 = assay: as above
HLA-B*57:01 = assay: as above
HLA-B*18:01 = assay: as above
HLA-B*45:06 = assay: IEDB peptide-MHC binding, purified MHC/competitive/fluorescence; filed as Kd, often an IC50 or EC50 that approximates it; ≥ and ≤ were set here for values at or beyond the usual limits of such assays; settings: source organism: Giardia lamblia ATCC 50803
HLA-A*32:07 = assay: as above; settings: source organism: Giardia lamblia ATCC 50803
HLA-B*15:42 = assay: as above; settings: source organism: Giardia lamblia ATCC 50803
HLA-B*83:01 = assay: as above; settings: source organism: Giardia lamblia ATCC 50803
HLA-A*31:01 [13] = assay: as above; settings: source organism: Giardia lamblia ATCC 50803
HLA-B*07:02 [14] = assay: IEDB peptide-MHC binding, purified MHC/competitive/fluorescence; ≥ and ≤ were set here for values at or beyond the usual limits of such assays
HLA-B*15:01 [15] = assay: as above; settings: source organism: Zaire ebolavirus
HLA-A*02:01 [16] = assay: as above; settings: source organism: Zaire ebolavirus
HLA-A*24:02 [17] = assay: as above
HLA-A*26:02 [18] = assay: IEDB peptide-MHC binding, purified MHC/competitive/fluorescence; filed as Kd, often an IC50 or EC50 that approximates it; ≥ and ≤ were set here for values at or beyond the usual limits of such assays; settings: source organism: Campylobacter jejuni subsp. jejuni NCTC 11168 = ATCC 700819
HLA-B*15:09 = assay: IEDB peptide-MHC binding, purified MHC/direct/fluorescence; filed as Kd, often an IC50 or EC50 that approximates it; ≥ and ≤ were set here for values at or beyond the usual limits of such assays; settings: source organism: Campylobacter jejuni subsp. jejuni CG8486
HLA-A*26:03 = assay: as above; settings: source organism: Campylobacter jejuni subsp. jejuni CG8486
HLA-B*15:17 [19] = assay: as above; settings: source organism: Campylobacter jejuni
HLA-A*30:01 = assay: as above; settings: source organism: Corynebacterium glutamicum
[20] = source organism: Salmonella enterica subsp. enterica serovar Typhimurium
[21] = source organism: Escherichia coli O157:H7
[22] = source organism: Escherichia coli
[23] = source organism: Zaire ebolavirus
[24] = source organism: Vibrio vulnificus
[25] = source organism: Vibrio vulnificus CMCP6
[26] = source organism: Campylobacter jejuni
[27] = source organism: Corynebacterium glutamicum

Sequence: ATISYRIKL
- pKd (HLA-A*11:01 [1]; [20]): 7.26
- pKd (HLA-B*35:01; [20]): 6.27
- pKd (HLA-B*58:01; [21]): ≤ 4.70
- pKd (HLA-B*07:02 [2]; [21]): ≤ 4.70
- pKd (HLA-A*03:01; [21]): ≤ 4.70
- pKd (HLA-B*44:02): ≤ 4.70
- pKd (HLA-B*15:01 [3]; [21]): ≤ 4.70
- pKd (HLA-A*02:01 [4]; [20]): 6.97
- pKd (HLA-A*26:01; [20]): 5.58
- pKd (HLA-A*01:01; [21]): ≤ 4.70
- pKd (HLA-B*08:01 [5]; [21]): ≤ 4.70
- pKd (HLA-B*40:01; [21]): ≤ 4.70
- pKd (HLA-B*27:05; [21]): ≤ 4.70
- pKd (HLA-A*69:01; [20]): 7.25
- pKd (HLA-A*31:01 [6]; [21]): ≤ 4.70

Sequence: DISPTNIPL
- pKd (HLA-A*11:01 [1]; [21]): ≤ 4.70
- pKd (HLA-B*35:01; [21]): 6.98
- pKd (HLA-B*58:01; [21]): ≤ 4.70
- pKd (HLA-B*07:02 [2]; [21]): ≤ 4.70
- pKd (HLA-A*03:01; [21]): ≤ 4.70
- pKd (HLA-B*44:02): ≤ 4.70
- pKd (HLA-B*15:01 [3]; [21]): ≤ 4.70
- pKd (HLA-A*02:01 [4]; [21]): ≤ 4.70
- pKd (HLA-A*26:01; [21]): 5.18
- pKd (HLA-A*01:01; [21]): ≤ 4.70
- pKd (HLA-B*08:01 [5]; [21]): ≤ 4.70
- pKd (HLA-B*40:01; [21]): ≤ 4.70
- pKd (HLA-B*27:05; [21]): ≤ 4.70
- pKd (HLA-A*69:01; [21]): 7.83
- pKd (HLA-A*31:01 [6]; [21]): ≤ 4.70

Sequence: DPRDDLSGM
- pKd (HLA-A*11:01 [1]; [21]): ≤ 4.70
- pKd (HLA-B*35:01; [22]): 7.00
- pKd (HLA-B*58:01; [21]): ≤ 4.70
- pKd (HLA-B*07:02 [2]; [22]): 5.11
- pKd (HLA-A*03:01; [21]): ≤ 4.70
- pKd (HLA-B*44:02): ≤ 4.70
- pKd (HLA-B*15:01 [3]; [21]): ≤ 4.70
- pKd (HLA-A*02:01 [4]; [21]): ≤ 4.70
- pKd (HLA-A*26:01; [21]): ≤ 4.70
- pKd (HLA-A*01:01; [21]): ≤ 4.70
- pKd (HLA-B*08:01 [5]; [21]): ≤ 4.70
- pKd (HLA-A*24:03; [22]): ≤ 4.70
- pKd (HLA-B*40:01; [21]): ≤ 4.70
- pKd (HLA-B*27:05; [21]): ≤ 4.70
- pKd (HLA-A*69:01; [21]): ≤ 4.70
- pKd (HLA-A*31:01 [6]; [21]): ≤ 4.70

Sequence: HRTIHHASA
- pIC50 (HLA-A*11:01 [7]): ≤ 3.81
- pIC50 (HLA-B*08:01 [8]; [23]): ≤ 3.86

Sequence: NIKHKERIP
- pIC50 (HLA-B*08:01 [8]; source organism: Vaccinia virus Copenhagen): ≤ 3.53

Sequence: PHPVVVRTL
- pKd (HLA-A*11:01 [9]): ≤ 4.70
- pKd (HLA-B*15:17 [10]): ≤ 4.70
- pKd (HLA-B*58:01; [24]): ≤ 4.70
- pKd (HLA-B*07:02 [2]; [24]): ≤ 4.70
- pKd (HLA-A*26:02 [11]): ≤ 4.70
- pKd (HLA-A*03:01; [24]): ≤ 4.70
- pKd (HLA-B*15:01 [3]; [24]): 6.11
- pKd (HLA-A*68:02; [24]): ≤ 4.70
- pKd (HLA-B*39:01; [25]): ≤ 4.70
- pKd (HLA-A*02:01 [4]; [24]): ≤ 4.70
- pKd (HLA-A*26:01; [25]): ≤ 4.70
- pKd (HLA-A*01:01; [24]): ≤ 4.70
- pKd (HLA-A*24:03; [24]): ≤ 4.70
- pKd (HLA-A*24:02 [12]; [24]): 4.74
- pKd (HLA-A*23:01; [24]): ≤ 4.70
- pKd (HLA-B*57:01; [24]): ≤ 4.70
- pKd (HLA-B*27:05; [24]): ≤ 4.70
- pKd (HLA-A*69:01; [24]): ≤ 4.70
- pKd (HLA-A*31:01 [6]; [24]): ≤ 4.70
- pKd (HLA-B*18:01; [24]): ≤ 4.70

Sequence: RLYPFGSYY
- pKd (HLA-B*45:06): ≤ 5.30
- pKd (HLA-A*32:07): 8.39
- pKd (HLA-B*15:42): ≤ 5.30
- pKd (HLA-B*83:01): ≤ 5.30
- pKd (HLA-A*31:01 [13]): 7.50
- pKd (HLA-A*03:01; source organism: Giardia lamblia ATCC 50803): ≥ 9.00

Sequence: TIHHASAPL
- pIC50 (HLA-A*11:01 [7]): ≤ 4.07
- pIC50 (HLA-B*07:02 [14]; [23]): 4.83
- pIC50 (HLA-B*15:01 [15]): 4.84
- pIC50 (HLA-A*02:01 [16]): 5.25
- pIC50 (HLA-B*08:01 [8]; [23]): ≤ 3.90
- pIC50 (HLA-A*24:02 [17]; [23]): 4.33

Sequence: TPKAQREIF
- pIC50 (HLA-B*07:02 [14]; source organism: Variola virus): 4.79
- pIC50 (HLA-B*08:01 [8]; source organism: Variola virus): ≤ 3.85
- pIC50 (HLA-A*24:02 [17]; source organism: Variola virus): 4.85

Sequence: WFGHLASDW
- pKd (HLA-A*26:02 [18]): ≤ 4.70
- pKd (HLA-A*11:01 [1]; [26]): ≤ 4.70
- pKd (HLA-B*15:09): ≤ 4.70
- pKd (HLA-B*58:01; [26]): 4.89
- pKd (HLA-B*07:02 [2]; [26]): ≤ 4.70
- pKd (HLA-A*26:03): ≤ 4.70
- pKd (HLA-A*03:01; [26]): ≤ 4.70
- pKd (HLA-B*15:01 [3]; [26]): 5.15
- pKd (HLA-A*68:02; [26]): ≤ 4.70
- pKd (HLA-B*39:01; source organism: Campylobacter jejuni subsp. jejuni CG8486): ≤ 4.70
- pKd (HLA-A*02:01 [4]; [26]): ≤ 4.70
- pKd (HLA-A*01:01; [26]): ≤ 4.70
- pKd (HLA-A*24:03; [26]): 7.67
- pKd (HLA-A*24:02 [12]; [26]): 5.80
- pKd (HLA-A*23:01; [26]): 6.47
- pKd (HLA-B*57:01; [26]): ≤ 4.70
- pKd (HLA-B*27:05; [26]): ≤ 4.70
- pKd (HLA-A*69:01; [26]): ≤ 4.70
- pKd (HLA-A*31:01 [6]; [26]): ≤ 4.70
- pKd (HLA-B*18:01; [26]): ≤ 4.70
- pKd (HLA-B*15:17 [19]): ≤ 4.70

Sequence: WPALSSIAA
- pKd (HLA-A*11:01 [1]; [27]): ≤ 4.70
- pKd (HLA-B*35:01; [27]): 8.77
- pKd (HLA-B*58:01; [27]): ≤ 4.70
- pKd (HLA-B*07:02 [2]; [27]): 8.06
- pKd (HLA-A*30:01): 5.12
- pKd (HLA-A*03:01; [27]): ≤ 4.70
- pKd (HLA-B*15:01 [3]; [27]): ≤ 5.30
- pKd (HLA-A*02:01 [4]; [27]): ≤ 4.70
- pKd (HLA-A*26:01; [27]): ≤ 4.70
- pKd (HLA-A*01:01; [27]): ≤ 4.70
- pKd (HLA-B*08:01 [5]; [27]): 5.89
- pKd (HLA-A*24:03; [27]): ≤ 4.70
- pKd (HLA-B*40:01; [27]): ≤ 4.70
- pKd (HLA-B*27:05; [27]): ≤ 4.70
- pKd (HLA-A*31:01 [6]; [27]): ≤ 4.70
